Test results as given in PMC4353693.

Legend:
[1] = target: actin binding domain of plectin isoform 1a (P1aABD); assay: ITC
[2] = target: actin binding domain of plectin isoform 1a (P1aABD); assay: SAXS

B1: first two FnIII domains of integrin β4 (β4Fn12; 1126–1355) (domain or fragment)
chain: DLGAPQNPNAKAAGSRKIHFNWLPPSGKPMGYRVKYWIQGDSESEAHLLDSKVPSVELTNLYPYCDYEMKVCAYGAQGEGPYSSLVSCRTHQEVPSEPGRLAFNVVSSTVTQLSWAEPAETNGEITAYEVCYGLVNDDNRPIGPMKKVLVDNPKNRMLLIENLRESQPYRYTVKARNGAGWGPEREAIINLATQPKRPMSIPIIPDIPIVDAQSGEDYDSFLMYSDDVLR
Question: How did the Kd [1] turn out when B1 was run?
Answer: Its Kd is 41.7 µM.

Question: And the dH [1]?
Answer: Its dH is 3.69 kcal/mol.

Question: And the volume fraction of the complex in solution (SAXS, OLIGOMER) [2]?
Answer: Its volume fraction of the complex in solution (SAXS, OLIGOMER) is 54%.
